Key:
HUVEC = HUVEC proliferation on Notch activation by immobilized DLL4; assay type: cell-based, human; settings: Notch activation by immobilized DLL4 protein
VEGFR2 = assay: Real-time quantitative RT-PCR of VEGFR2 expression in HUVECs; assay type: cell-based, human; settings: 2-D culture of HUVECs (36 hr)
Description: RNA extraction and Real-time quantitative RT-PCR. Extraction of total RNA from HUVECs in 2-D culture was done using RNeasy® Mini Kit (Qiagen) as per instructions of the manufacturer. To extract total RNA from HUVECs growing in fibrin gels, fibrin gels were treated with 10× trypsin-EDTA (Gibco) for 5 min to remove the top layer fibroblasts, followed by neutralization with 10% FBS in PBS. The gel clots were then removed from tissue culture wells and subjected to centrifugation (10K for 5 min) in microtubes to remove excessive fluid. The resulting gel “pellets” were lysed with lysis buffer (RNeasy® Mini Kit), and further processed as with HUVECs in 2-D culture. The quality of RNA was assessed using RNA 6000 Nano Chips and the Agilent 2100 Bioanalyzer (Agilent Technologies). Real-time quantitative RT-PCR reactions were done in triplicate using 7500 Real Time PCR System (Applied Biosystems). Human GAPDH was used as reference gene for normalization. The expression levels are expressed as the mean (±SEM) fold mRNA changes relative to control from 3 separate determinations. The forward and reverse primer and probe sequences for VEGFR2, TGFβ2 and GAPDH were as follows.
Therefore, while VEGF can act upstream of DLL4/Notch pathway, DLL4/Notch is capable of fine-tuning the response through negatively regulating VEGFR2 expression.

murine Delta4 (ECD5.5) = target: T1, murine Delta4 (ECD5.5) (Mus musculus, UniProt Q9JI71); assay: Surface plasmon resonance (BIAcore-3000) binding affinity and kinetics; settings: murine DLL4-His injected over coupled antibody, 25° C.
T1 construct: murine Delta4 (ECD5.5); His
Description: (§1) To determine the binding affinity of the anti-DLL4 Mabs, surface plasmon resonance (SRP) measurement with a BIAcore™-3000 was used (BIAcore, Inc., Piscataway, N.J.). Briefly, carboxymethylated dextran biosensor chips (CM5, BIAcore Inc.) were activated with N-ethyl-N′-(3-dimethylaminopropyl)-carbodiimide hydrochloride (EDC) and N-hydroxysuccinimide (NHS) according to the supplier's instructions. Anti-DLL4 antibody was diluted with 10 mM sodium acetate, pH 4.8, into 5 μg/ml before injection at a flow rate of 5 μl/minute to achieve approximately 500 response units (RU) of coupled antibody. Next, IM ethanolamine was injected to block unreacted groups. For kinetics measurements, two-fold serial dilutions of either human or murine DLL4-His molecules (0.7 nM to 500 nM) were injected in PBS with 0.05% Tween™ 20 at 25° C. at a flow rate of 25 μl/min. Association rates (kon) and dissociation rates (koff) were calculated using a simple one-to-one Langmuir binding model (BIAcore Evaluation Software version 3.2). The equilibrium dissociation constant (Kd) was calculated as the ratio koff/kon.

human Delta4 (ECD5.5) = target: T2, human Delta4 (ECD5.5) (Homo sapiens, UniProt Q9NR61); assay: as above; settings: human DLL4-His injected over coupled antibody, 25° C.
T2 construct: DLL4-His (C-terminal His-tagged human DLL4, amino acid 1-404); His (C)
Description: as §1

T1 sequence (Q9JI71 27-405 limits assumed): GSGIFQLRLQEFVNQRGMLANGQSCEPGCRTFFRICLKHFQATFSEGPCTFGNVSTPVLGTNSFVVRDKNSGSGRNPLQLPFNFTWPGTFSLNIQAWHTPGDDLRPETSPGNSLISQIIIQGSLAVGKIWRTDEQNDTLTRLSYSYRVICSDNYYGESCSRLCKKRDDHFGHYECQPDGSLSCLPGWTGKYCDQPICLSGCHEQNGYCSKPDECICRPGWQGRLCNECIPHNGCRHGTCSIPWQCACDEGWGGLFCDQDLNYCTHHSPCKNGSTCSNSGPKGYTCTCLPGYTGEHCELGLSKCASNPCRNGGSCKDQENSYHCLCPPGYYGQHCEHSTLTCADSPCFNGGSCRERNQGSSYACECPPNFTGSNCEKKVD

Row | Molecule | HUVEC proliferation / growth (HUVEC) | VEGFR2 expression on Notch activation (VEGFR2) | koff10^−4 (murine Delta4 (ECD5.5)) | kon/10^5 (murine Delta4 (ECD5.5)) | koff/10^−4 (human Delta4 (ECD5.5)) | kon/10^5 (human Delta4 (ECD5.5))
1 | immobilized DLL4: immobilized C-terminal His-tagged human DLL4 (amino acids 1-404) used to activate Notch in HUVECs (protein, left off: small tags and cut ends) GSGVFQLQLQEFINERGVLASGRPCEPGCRTFFRVCLKHFQAVVSPGPCTFGTVSTPVLGTNSFAVRDDSSGGGRNPLQLPFNFTWPGTFSLIIEAWHAPGDDLRPEALPPDALISKIAIQGSLAVGQNWLLDEQTSTLTRLRYSYRVICSDNYYGDNCSRLCKKRNDHFGHYVCQPDGNLSCLPGWTGEYCQQPICLSGCHEQNGYCSKPAECLCRPGWQGRLCNECIPHNGCRHGTCSTPWQCTCDEGWGGLFCDQDLNYCTHHSPCKNGATCSNSGQRSYTCTCRPGYTGVDCELELSECDSNPCRNGGSCKDQEDGYHCLCPPGYYGLHCEHSTLSCADSPCFNGGSCRERNQGANYACECPPNFTGSNCEKKVD | significant growth inhibition | suppressed the expression of VEGFR2 |  |  |  | 
2 | YW26.14: affinity matured anti-DLL4 antibody; HVR-H1/H2/H3 SEQ ID NO:2, 3, 9; HVR-L1/L2/L3 SEQ ID NO:10, 11, 14 (antibody, V domains shown) VH: EVQLVESGGGLVQPGGSLRLSCAASGFSFRDNWISWVRQAPGKGLEWVGVINPNSGSTDYADSVKGRFTISADTSKNTAYLQMNSLRAEDTAVYYCARDNFGGYFDYWGQGTLVTVSS VL: DIQMTQSPSSLSASVGDRVTITCRASQDVSTAVAWYQQKPGKAPKLLIYSASFLYSGVPSRFSGSGSGTDFTLTISSLQPEDFATYYCQQSVNGPATFGQGTKVEIK |  |  | 0.73 10^−4 | 3.3 10^5 | 0.66 10^−4 | 1.8 10^5
3 | YW26.34: affinity matured anti-DLL4 antibody; HVR-H1/H2/H3 SEQ ID NO:1, 6, 9; HVR-L1/L2/L3 SEQ ID NO:10, 11, 16 (antibody, V domains shown) VH: EVQLVESGGGLVQPGGSLRLSCAASGFTFTDNWISWVRQAPGKGLEWVGLINPTSGSTIYADSVKGRFTISADTSKNTAYLQMNSLRAEDTAVYYCARDNFGGYFDYWGQGTLVTVSS VL: DIQMTQSPSSLSASVGDRVTITCRASQDVSTAVAWYQQKPGKAPKLLIYSASFLYSGVPSRFSGSGSGTDFTLTISSLQPEDFATYYCQQSYTGPSTFGQGTKVEIK |  |  | 0.65 10^−4 | 3.6 10^5 | 0.67 10^−4 | 1.9 10^5

— US7803377B2, “Anti-DLL4 antibodies and methods using same” (Genentech, Inc., priority 2006, dated 2010)
